From patent US8575113 come the findings set out here.

The target of data set [1] is GST-XIAP linker BIR 2 [GST: P08515].
The target in data set [2] is GST-linker BIR 2 BIR3Ring.
GST-linker BIR 2 BIR3Ring, sequence (chain, as listed by the source): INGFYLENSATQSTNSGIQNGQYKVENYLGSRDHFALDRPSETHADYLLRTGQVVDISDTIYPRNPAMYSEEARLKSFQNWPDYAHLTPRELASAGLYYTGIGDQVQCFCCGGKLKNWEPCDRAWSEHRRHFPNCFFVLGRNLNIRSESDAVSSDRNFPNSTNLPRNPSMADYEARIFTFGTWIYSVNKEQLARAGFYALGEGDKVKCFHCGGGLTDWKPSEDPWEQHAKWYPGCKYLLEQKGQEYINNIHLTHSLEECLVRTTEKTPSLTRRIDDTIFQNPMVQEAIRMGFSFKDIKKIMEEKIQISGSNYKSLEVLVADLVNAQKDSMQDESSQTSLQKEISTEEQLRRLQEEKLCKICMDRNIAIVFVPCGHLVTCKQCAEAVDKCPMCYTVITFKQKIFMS

B1: caspase-3 (protein)
chain: SGISLDNSYKMDYPEMGLCIIINNKNFHKSTGMTSRSGTDVDAANLRETFRNLKYEVRNKNDLTREEIVELMRDVSKEDHSKRSSFVCVLLSHGEEGIIFGTNGPVDLKKITNFFRGDRCRSLTGKPKLFIIQACRGTELDCGIETDSGVDDDMACHKIPVEADFLYAYSTAPGYYSWRNSKDGSWFIQSLCAMLKQYADKLEFMHILTRVNRKVATEFESFSFDATFHAKKQIPCIVSMLTKELYFYH
For B1, the “Caspase 3 activity (DEVD-AMC hydrolysis, Vo of AMC fluorescence/sec)” value in data set [1] and in data set [2] was “caspase-3 was inhibited by linker-BIR2 or linker BIR2-BIR3-RING of XIAP” in each case.
